16 molecules from patent US20230050972A1 (MOMENTA PHARMACEUTICALS, published 2023) can be followed below.

The target in one assay is T1, recombinant mouse α11β1 (mouse, UniProt P61622 23-1141; P09055 21-728, limits assumed).
T1 construct: also called murine α11β1
The assay can be described thus: ELISA on recombinant mouse α11β1. Here is the method: (§1) 0.25 μg/mL of target antigen (recombinant human or mouse α11β1) was plated in a 96-well plate over night at 4° C. Plates were washed (PBS with 0.1% Tween-20), blocked (PBS with 2% BSA and 0.05% Tween-20) for 1 hour at room temperature and incubated with a range of antibody concentrations for 1 hour at room temperature. Subsequently, plates were washed and incubated with biotinylated anti-rabbit/mouse/human IgG in a 1:1000 dilution buffer and incubated for 1 hour at room temperature. After washing the plates, Streptavidin HRP was added at 1:200 in dilution buffer and incubated for 1 hour at room temperature. Ultra TMB ELISA substrate solution was added and the plates incubated for 5 minutes on a plate shaker. The reaction was stopped by adding stop solution to each well and plates were read at 450 nm.

The next assay has as its target T2, recombinant human α11β1 (human, UniProt Q9UKX5 23-1141; P05556 21-728).
T2 construct: Coated in ELISA; ELISA and SPR material treated as one molecule; also called HIS-tagged human α11β1; integrin alpha 11 beta 1
Put plainly: ELISA on recombinant human α11β1. The method, then: as §1

The target in assay [1] is T3, α11β1 on human myofibroblasts (MF) (human, UniProt Q9UKX5 23-1188; P05556 21-798).
T3 construct: whole, on cells
T3 sequence (Q9UKX5 23-1188, chain 1 of 2): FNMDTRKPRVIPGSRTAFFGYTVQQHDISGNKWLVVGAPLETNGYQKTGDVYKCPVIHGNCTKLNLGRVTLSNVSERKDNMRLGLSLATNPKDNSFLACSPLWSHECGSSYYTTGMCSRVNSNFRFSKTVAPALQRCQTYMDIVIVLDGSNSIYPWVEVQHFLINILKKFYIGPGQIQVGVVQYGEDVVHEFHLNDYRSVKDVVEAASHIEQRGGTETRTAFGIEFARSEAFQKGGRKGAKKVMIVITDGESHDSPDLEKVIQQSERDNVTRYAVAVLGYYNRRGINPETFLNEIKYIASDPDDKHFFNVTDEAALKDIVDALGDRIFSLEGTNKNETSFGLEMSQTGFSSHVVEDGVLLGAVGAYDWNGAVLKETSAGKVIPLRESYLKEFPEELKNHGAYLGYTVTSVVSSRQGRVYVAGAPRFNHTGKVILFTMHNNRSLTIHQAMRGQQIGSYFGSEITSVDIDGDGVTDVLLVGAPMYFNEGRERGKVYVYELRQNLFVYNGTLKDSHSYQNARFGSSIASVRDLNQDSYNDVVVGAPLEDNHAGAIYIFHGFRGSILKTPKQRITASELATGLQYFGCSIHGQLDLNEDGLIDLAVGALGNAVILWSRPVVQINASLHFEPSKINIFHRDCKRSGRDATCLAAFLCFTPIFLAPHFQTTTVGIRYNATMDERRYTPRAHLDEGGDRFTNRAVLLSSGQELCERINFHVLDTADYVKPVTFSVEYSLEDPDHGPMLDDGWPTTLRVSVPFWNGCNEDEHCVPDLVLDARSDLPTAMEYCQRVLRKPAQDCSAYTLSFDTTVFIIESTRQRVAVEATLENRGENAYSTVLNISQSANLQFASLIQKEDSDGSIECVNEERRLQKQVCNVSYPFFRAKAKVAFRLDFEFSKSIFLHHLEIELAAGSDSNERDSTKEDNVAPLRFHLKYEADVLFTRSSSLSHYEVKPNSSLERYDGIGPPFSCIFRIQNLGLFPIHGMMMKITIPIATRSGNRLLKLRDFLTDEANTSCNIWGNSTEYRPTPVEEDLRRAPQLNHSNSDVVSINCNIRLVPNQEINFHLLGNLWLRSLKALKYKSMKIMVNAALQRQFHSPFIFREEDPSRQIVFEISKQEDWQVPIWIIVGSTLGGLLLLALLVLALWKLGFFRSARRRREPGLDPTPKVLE
T3 sequence (P05556 21-798, chain 2 of 2): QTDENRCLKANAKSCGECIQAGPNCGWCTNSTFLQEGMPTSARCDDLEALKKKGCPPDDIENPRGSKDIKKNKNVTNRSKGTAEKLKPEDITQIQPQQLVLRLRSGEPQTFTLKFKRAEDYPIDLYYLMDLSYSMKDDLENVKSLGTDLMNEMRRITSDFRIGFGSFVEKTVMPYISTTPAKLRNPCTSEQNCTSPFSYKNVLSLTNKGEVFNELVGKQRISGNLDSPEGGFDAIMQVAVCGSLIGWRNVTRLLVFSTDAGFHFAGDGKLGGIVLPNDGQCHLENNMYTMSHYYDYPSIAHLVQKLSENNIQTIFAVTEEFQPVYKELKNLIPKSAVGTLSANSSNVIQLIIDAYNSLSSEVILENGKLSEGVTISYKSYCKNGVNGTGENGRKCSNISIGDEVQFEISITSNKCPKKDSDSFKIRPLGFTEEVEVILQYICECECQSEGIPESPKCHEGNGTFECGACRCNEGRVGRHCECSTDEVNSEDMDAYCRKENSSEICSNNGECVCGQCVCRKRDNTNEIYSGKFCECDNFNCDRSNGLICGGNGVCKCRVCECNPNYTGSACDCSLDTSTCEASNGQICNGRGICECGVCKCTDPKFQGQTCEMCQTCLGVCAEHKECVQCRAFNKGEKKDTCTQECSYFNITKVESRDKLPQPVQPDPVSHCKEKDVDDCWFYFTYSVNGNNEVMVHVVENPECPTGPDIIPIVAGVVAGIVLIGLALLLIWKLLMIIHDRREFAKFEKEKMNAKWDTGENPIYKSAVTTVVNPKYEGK
The assay can be described thus: FACS on human myofibroblasts. The method, then:
Human Pulmonary Fibroblasts (ScienCell) were cultured in complete Fibroblast Growth Medium (ScienCell) until 80% confluent in T-150 flasks. Cells were washed and harvested using Accutase. Cells were seeded into T-150 flasks at 7,500 cells/cm² in complete FGF and cultured for 72 hours. Cells were then washed and starved in serum reduced medium for 24 hours. After starvation, cells were treated with TGFβ-1 (R&D Systems) for 72 hours. Cells were harvested using Accutase and seeded in 96-well conical bottom plates. Cells were blocked with Heat Inactived Fetal Bovine Serum (Gibco) for 30 minutes at 4° C. Cells were then incubated with anti-α11 antibodies at the doses described in each figure for 30 minutes at 4° C. A human anti-α11 antibody (Creative BioLabs) was included as a positive control as well as the appropriate IgG isotype negative controls. Cells were washed twice and incubated with PE conjugated secondary antibodies specific to the IgG class of the anti-α11 antibodies being tested for 30 minutes at 4° C. Cells were washed twice and fixed in 1% PFA for 30 minutes. Cells were acquired on a FACS Verse […]. Data were analyzed by gating on single cells and determining the geometric Mean Fluorescence Intensity (gMFI) in the PE channel for each sample.

For assay [2], the target named is T4, in-house generated I domain of α11β1 (human, UniProt Q9UKX5 159-349, limits assumed).
T4 construct: domain: I domain; also called human α11β1 I domain; α11β1 I Domain
T4 sequence (looked up): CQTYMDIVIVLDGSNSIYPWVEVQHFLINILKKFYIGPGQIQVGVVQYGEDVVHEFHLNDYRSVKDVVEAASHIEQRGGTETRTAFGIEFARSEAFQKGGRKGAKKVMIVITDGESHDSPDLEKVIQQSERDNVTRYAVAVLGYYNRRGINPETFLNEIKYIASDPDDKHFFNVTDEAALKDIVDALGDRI
Put plainly: binding to isolated I domain.

Residue numbers refer to the chain shown, from its start.

T2 sequence (Q9UKX5 23-1141 limits assumed, chain 1 of 2): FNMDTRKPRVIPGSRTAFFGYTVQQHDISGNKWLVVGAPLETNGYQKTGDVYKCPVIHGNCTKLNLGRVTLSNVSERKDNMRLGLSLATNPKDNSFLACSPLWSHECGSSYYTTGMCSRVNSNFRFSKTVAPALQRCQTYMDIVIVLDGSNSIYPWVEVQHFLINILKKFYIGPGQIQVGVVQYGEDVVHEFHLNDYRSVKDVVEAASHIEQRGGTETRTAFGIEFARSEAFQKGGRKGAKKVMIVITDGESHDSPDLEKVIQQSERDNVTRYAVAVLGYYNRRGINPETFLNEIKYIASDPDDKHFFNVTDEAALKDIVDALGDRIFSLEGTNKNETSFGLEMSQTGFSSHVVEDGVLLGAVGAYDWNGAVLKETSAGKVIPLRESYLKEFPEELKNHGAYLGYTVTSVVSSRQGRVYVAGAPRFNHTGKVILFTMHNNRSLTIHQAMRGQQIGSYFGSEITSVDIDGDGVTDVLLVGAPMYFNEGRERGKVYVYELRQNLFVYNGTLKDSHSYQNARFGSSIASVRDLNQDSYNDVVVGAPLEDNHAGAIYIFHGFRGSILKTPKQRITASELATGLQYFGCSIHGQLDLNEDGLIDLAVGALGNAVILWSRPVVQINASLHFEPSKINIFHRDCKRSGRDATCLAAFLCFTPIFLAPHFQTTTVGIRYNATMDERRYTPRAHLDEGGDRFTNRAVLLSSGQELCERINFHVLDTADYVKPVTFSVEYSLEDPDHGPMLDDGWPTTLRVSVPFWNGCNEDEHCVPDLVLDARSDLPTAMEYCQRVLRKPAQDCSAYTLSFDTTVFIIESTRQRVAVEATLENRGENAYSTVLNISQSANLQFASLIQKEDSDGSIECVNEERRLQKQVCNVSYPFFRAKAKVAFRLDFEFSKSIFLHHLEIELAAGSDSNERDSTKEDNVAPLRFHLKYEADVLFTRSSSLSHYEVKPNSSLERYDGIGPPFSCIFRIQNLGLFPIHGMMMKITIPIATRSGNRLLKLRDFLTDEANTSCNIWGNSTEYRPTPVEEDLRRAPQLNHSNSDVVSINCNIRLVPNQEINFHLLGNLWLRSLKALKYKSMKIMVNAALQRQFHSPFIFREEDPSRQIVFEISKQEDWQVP
T2 sequence (P05556 21-728 limits assumed, chain 2 of 2): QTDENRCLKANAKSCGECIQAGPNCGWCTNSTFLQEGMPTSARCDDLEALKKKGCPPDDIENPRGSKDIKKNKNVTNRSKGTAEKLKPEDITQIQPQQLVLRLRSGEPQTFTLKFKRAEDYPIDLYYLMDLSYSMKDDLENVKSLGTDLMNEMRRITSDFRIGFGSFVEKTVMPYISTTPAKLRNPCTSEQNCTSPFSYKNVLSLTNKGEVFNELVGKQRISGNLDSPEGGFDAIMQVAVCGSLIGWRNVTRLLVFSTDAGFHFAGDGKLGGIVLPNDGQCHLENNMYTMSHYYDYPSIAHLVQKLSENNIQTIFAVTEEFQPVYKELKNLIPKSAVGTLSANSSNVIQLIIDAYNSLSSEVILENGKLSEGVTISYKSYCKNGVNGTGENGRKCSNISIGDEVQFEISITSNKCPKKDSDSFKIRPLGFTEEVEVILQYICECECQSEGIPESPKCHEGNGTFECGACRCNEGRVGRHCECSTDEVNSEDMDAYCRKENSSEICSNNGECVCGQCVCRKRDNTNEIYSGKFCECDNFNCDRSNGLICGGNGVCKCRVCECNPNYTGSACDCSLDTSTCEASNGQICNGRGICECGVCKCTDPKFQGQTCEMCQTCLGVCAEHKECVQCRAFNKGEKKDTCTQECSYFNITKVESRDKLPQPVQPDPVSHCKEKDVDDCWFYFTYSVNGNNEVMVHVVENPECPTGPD

B1: 8H8E9 (antibody, V domains shown)
VH: QVQLKESGPGLVQPSQTLSLTCTVSGFSLTSNSVSWVRQAPGKGLEWMGAIWSGGSTDYNSALKSRLSISRDTSKSQVFLKMNSLQTEDTAIYFCTRSHWEPFDYWGQGVMVTVSS
VL: DIVMTQSPFSLAVSEGEMVTINCKSSQGLLSSGNQKNYLAWYQQRPGQSPKLLIYYASTRQSGVPDRFIGGGSGTDFTLTISDVQAEDLADYYCLQHYSYPPTFGSGTKLEIK
notes: rat hybridoma mAb
With B1, the binding result with recombinant mouse α11β1 is “no binding”; with recombinant human α11β1, “binds”.

B2: 6E5C11 (antibody, V domains shown)
VH: B1 VH with K5R, S35T, A40P, G54D, A62T, N83S
VL: B1 VL with F9L, M18T, I21M, G28S, L30F, R45K, G71S, A86T, S99N
notes: rat hybridoma mAb
As for B2, the figures for the binding result with recombinant mouse α11β1 and with recombinant human α11β1 were “no binding” and “binds”, respectively.

B3: 10-F23 (antibody, V domains shown)
VH: QVTLKESGPGILQPSQTLSLTCSFSGFSLSTFAMGVGWIRQPSGKGLEWLAHIWWDDDKYYNPALKSRLTISKDTSKNHVFLKIANVDTADTATYYCARMPLTFYFDYWGQGTTLTVSS
VL: DVLLTQTPLSLPVSLGDQASISCRSSQSIVHSNGHTYLEWYLQKPGQSPKLLIYKVSNRFSGVPDRFSGSGSGTDFTLKISRVEAEDLGVYYCFQGSHVPFTFGGGTKLEIK
notes: mouse hybridoma IgG
Take B3: the binding result (with recombinant mouse α11β1; in assay [1]; in the assay with recombinant human α11β1) was “binds” throughout.

B4: 6-A12 (antibody, V domains shown)
VH: B3 VH with S30R, H79Q
VL: B3 VL with L4M, H35N, N58T
notes: mouse hybridoma IgG
Take B4: the binding result (in the assay with recombinant mouse α11β1; in assay [1]; with recombinant human α11β1) was “binds” each time.

B5: 3-G5 (antibody, V domains shown)
VH: QVQLQQSGAELARPGASVKLSCKASGYTFTSYGISWVKQRTGQGLEWIGEIFPRSSNTYYNEKFKGKATLTADKSSSTVYMEFRSLTSEDSAVYFCAREGGLAWFAYWGQGTLVTVSA
VL: DVVMTQTPLTLSVTIGQPASISCKSSQSLLYTNGNTYLNWLLQRPGQSPKRLIYLVSKLDSGIPDRFSGSGSGTDFTLRISRVEAEDLGVYYCLQSTHFPFTFGSGTKLEIK
notes: mouse hybridoma IgG
With B5, the binding result is “no binding” in assay [2], “binds” with recombinant mouse α11β1 and “binds” in the assay with recombinant human α11β1.

B6: 9-B11 (antibody, V domains shown)
VH: QVQLQQPGAELVRPGTSVKLSCKASGYTFTSYWMHWVQQRPGQGLEWIGVIDPSDSYTNYNQKFKGKATLTVDTSSSSAYMQLSSLTSEDSAVYYCARDDVAMDYWGQGTSVTVSS
VL: DIVVTQSPASLAVSLGQRATISCRASESVDSYGNSFIHWYQQKPGQPPKLLIYRASNLKSGIPARFSGSGSRTDFTLTINPVEADDVATYYCQQSNEDPYTFGGGTKLEIK
notes: mouse hybridoma IgG
B6: the binding result with recombinant mouse α11β1 is recorded as “no binding”; in assay [1] it was “binds”; with recombinant human α11β1 it was “binds”.

B7: 6-B21 (antibody, V domains shown)
VH: EVQLQQSGPELVKPGASVKISCKASGYTFTDYYMNWVKQSHGKSLEWIGDINPHNGGTSFIQKFKGKATLTVDKSSSTAYMELRSLTSEDSAVYYCAPLGRKEGFAYWGQGTLVTVSA
VL: DTVLTQSPASLVVSLGQRATISCRASKSVSTSGYSYMHWYQQKPGQPPKLLIYLASNLESGVPARFSGSGSGTAFTLNIHPVEEEDAATYYCQHSRELPYTFGGGTKLEIK
notes: mouse hybridoma IgG
B7: the binding result was “no binding” in assay [2], “binds” with recombinant mouse α11β1 and “binds” with recombinant human α11β1.

B8: 7-O8 (antibody, V domains shown)
VH: EVQLQQSGPELVKPGASVKMSCKASGYTFTDYYIHWVKQKPGQGLEYIGEIYPGSGNTYYNGKFRGKATLTADKSSSTAYMQLSSLTSEDSAVYFCGSGYFDYWGQGTTLTVSS
VL: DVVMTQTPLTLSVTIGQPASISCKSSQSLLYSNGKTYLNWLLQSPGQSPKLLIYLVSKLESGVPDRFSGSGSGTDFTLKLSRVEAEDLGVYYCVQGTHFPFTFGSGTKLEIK
notes: mouse hybridoma IgG
Turning to B8, the binding result (with recombinant mouse α11β1; in assay [1]; with recombinant human α11β1) was “binds” throughout.

B9: 6-M8 (antibody, V domains shown)
VH: QVQLQQPGAELVMPGASVKLSCKASGYTFTNYWMHWVKQRPGQGLEWIGEIDPSDSYTNYNQKFKGKATLTVDKSSSTAYMQLSSLTSEDSAVYYCTRQGSTYAWGQGTSVTVSS
VL: DIVMTQAAFSNPVTLGTSASISCRSSKSLLHSNGITYLYWYLQKPGQSPQLLIYQMSNLASGVPDRFSSSGSGTDFTLRISRVEAEDVGVYYCAQNLELPPTFGGGTKLEIK
notes: mouse hybridoma IgG
In the case of B9, the binding result in assay [2] is given as “no binding”; with recombinant mouse α11β1 it was “no binding”; with recombinant human α11β1 it was “binds”.

B10: 6-O12 (antibody, V domains shown)
VH: EVKLEESGGGLVQPGGSMKLSCAASGFTFSDAWMDWVRQSPEAGLEWVAEIRNKAHNPATYYAESVKGRFTISRDDSKSSVYLQMNSLRAEDTGIYYCTLVAPDAMDYWGQGTSVTVSS
VL: DIVMSLSPSSLAVSVGEKVTMSCKSSQSLLYSRNQKNYLAWYQQKPGQSPKLLIYWASTRASGVPDRFTGSGSGTDFTLTISSVKAEDLAVYYCQQYYSYPYTFGGGTKLEIK
notes: mouse hybridoma IgG
For the molecule B10, the binding result in assay [2] was “no binding”; with recombinant mouse α11β1 it was “no binding”; with recombinant human α11β1 it was “binds”.

B11: 10-L15 (antibody, V domains shown)
VH: QVQLQQSGPELVRPGASVKMSCKASGYTFTSYWMHWVKQRPGQGLEWIGMIDPSNSETWLNQKFKDKATLNVDKSSNTAYMQLSSLTSEDSAVYYCARYDGYYDYWGQGTTLTVSS
VL: NIVLTQSPASLAVSLGQRATISCRASESVDSYGNSFMHWYQQKPGQPPKLLIYLASNVESGVPARFSGSGSRTDFTLTIDPVEADDAATYYCQQNNEDPWTFGGGTKLEIK
notes: mouse hybridoma IgG
With B11, the binding result in the assay with recombinant mouse α11β1 and with recombinant human α11β1 was “binds” each time.

B12: 10-K10 (antibody, V domains shown)
VH: EVQLQQSGPELVKPGASVKMSCKASGYTITDYYMMWLKQSHGKSLEWIGDINPYTGGTSYNQKFKGKATLTVDKSSSTAYMQLNSLTSEDSAVYYCARGAYWGQGTTLTVSS
VL: not shown
notes: mouse hybridoma IgG
Regarding B12, the binding result in assay [2] is listed as “no binding”; with recombinant mouse α11β1, “binds”; in assay [1] it was “binds”; with recombinant human α11β1, “binds”.

B13: 6-A15 (antibody, V domains shown)
VH: B12 VH with M81L, N84H
VL: not shown
notes: mouse hybridoma IgG
For the molecule B13, the binding result in assay [2] is reported as “no binding”; with recombinant mouse α11β1 it was “binds”; with recombinant human α11β1, “binds”.

B14: 2-A3 (antibody, V domains shown)
VH: B12 VH with I29F, L37V, T55N, T58S, Q62P, K67R, A100T, T107L, L108V, S112A
VL: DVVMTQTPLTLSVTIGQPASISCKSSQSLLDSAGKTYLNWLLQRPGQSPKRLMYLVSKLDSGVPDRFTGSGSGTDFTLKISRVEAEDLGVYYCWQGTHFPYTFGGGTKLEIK
notes: mouse hybridoma IgG
As to B14, the binding result in assay [2] is “no binding”; with recombinant mouse α11β1 it was “binds”; with recombinant human α11β1, “binds”.

B15: 6-P20 (antibody, V domains shown)
VH: EVQLQQSGPELVKPGASVKISCKASGYTFTDYYMNWVKQSHGRSLELIGDINPNNGGSNFNQKFRGKATLTVDKSSSTAYMELRSLTSEDSAIYYCARMGYWGQGTLVTVSA
VL: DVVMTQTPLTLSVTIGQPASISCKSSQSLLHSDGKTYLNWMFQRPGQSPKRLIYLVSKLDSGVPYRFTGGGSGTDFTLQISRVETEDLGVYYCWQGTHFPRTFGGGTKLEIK
notes: mouse hybridoma IgG
B15: the binding result in assay [2] is “no binding”; with recombinant mouse α11β1, “no binding”; with recombinant human α11β1 it was “binds”.

B16: 18E10F10 (antibody, V domains shown)
VH: EVQLVESGGGLVQPGRSLKLSCAASRFTFSDYNMAWVRQAPKKGLEWVATIYHDDSGSYYRDSVKGRFTISRNNAKSTLYLQMDSLRSEDMATYYCARHNNGFDYWGQGVMVTVAS
VL: DVVMTQTPVSLPVRLGGQASISCRSSQSLVHSNGNTYLHWYLQKPGQSPQLLINRVSNRFSGVPDRFSGSGSGTDFTLKINRVEPEDLGDYYCLQSTHFPLTFGSGTKLETK
notes: rat hybridoma mAb
With B16, the results for the binding result (in assay [2]; with recombinant mouse α11β1; in the assay with recombinant human α11β1) were “no binding”, “no binding” and “binds”, respectively.
